Data on one molecule can be found in article PMC12440737 (2025).

The test concerns the target T1, IL-6 receptor (Homo sapiens, UniProt P08887).
T1 chain: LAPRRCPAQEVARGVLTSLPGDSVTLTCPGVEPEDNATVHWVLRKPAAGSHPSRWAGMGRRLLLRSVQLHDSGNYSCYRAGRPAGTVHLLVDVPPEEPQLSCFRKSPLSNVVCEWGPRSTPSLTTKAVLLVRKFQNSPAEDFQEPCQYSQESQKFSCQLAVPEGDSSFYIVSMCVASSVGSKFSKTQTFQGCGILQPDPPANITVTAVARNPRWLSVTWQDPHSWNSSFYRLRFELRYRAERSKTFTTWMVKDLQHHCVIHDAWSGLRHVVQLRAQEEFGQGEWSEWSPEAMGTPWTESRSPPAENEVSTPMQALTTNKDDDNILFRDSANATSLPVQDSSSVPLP
Kind of test: SPR.

B1: Tocilizumab (antibody, V domains shown)
VH: QVQLQESGPGLVRPSQTLSLTCTVSGYSITSDHAWSWVRQPPGRGLEWIGYISYSGITTYNPSLKSRVTMLRDTSKNQFSLRLSSVTAADTAVYYCARSLARTTAMDYWGQGSLVTVSS
VL: DIQMTQSPSSLSASVGDRVTITCRASQDISSYLNWYQQKPGKAPKLLIYYTSRLHSGVPSRFSGSGSGTDFTFTISSLQPEDIATYYCQQGNTLPYTFGQGTKVEIK
As usually defined, the Kd is the free concentration of one partner at which half of the binding sites on the other are occupied at equilibrium, for simple one-to-one binding. The low end stands for tighter binding, the high end for weaker binding. Turning to B1, binding was characterised by a dissociation constant (Kd) of 9.9 nM.
